# Source: patent US8003609B2, “Method for ameliorating pain by modification of NMDA receptors through inhibition of Src” (The Hospital for Sick Children, priority 2004, dated 2011)
# Key:
# [1] = target: T1, ND2 association with NMDAR complexes (Rattus norvegicus, UniProt P11662); test: co-immunoprecipitation of ND2 with NMDARs from PSD proteins; type: binding
# T1 construct: from tissue; host or cells: rat brain post-synaptic density fraction
# Method: (§1) Detailed protocols for in vitro binding assays, pull down assays, immunoblotting, and co-immunoprecipitation techniques can be found in Pelkey et al. (Neuron 34:127-138 2002).
# (§2) Post-synaptic density proteins (Kennedy et al. Proceedings of the National Academy of Science USA 80:7357-7361 1983) were prepared from rat brain as described in detail (Pelkey et al. Neuron 34:127-138 2002). Cellular fractionation of rat brain tissue into nuclear, heavy mitochondrial, light mitochondrial, microsomal, and cytosolic fractions was performed by differential centrifugation of tissue homogenate in 0.25 M sucrose/10 mM HEPES-NaOH, 1 mM EDTA, pH 7.4 with 2 μg each of aprotinin, pepstatin A, and leupeptin (Sigma, St. Louis, Mo.) at 4° C. Nuclei were pelleted by centrifugation at 1 000 g for 10 minutes, the supernatant was removed and spun at 3 000 g for 10 minutes to obtain a heavy mitochondrial pellet. The supernatant was removed and spun at 16 000 g for 15 minutes to obtain a light mitochondrial pellet. The supernatant was removed and spun at 100 000 g for 1 hour to obtain a microsomal pellet and the cytosolic fraction. All pellets were then resuspended in RIPA buffer (50 mM Tris pH 7.6, 150 mM NaCl, 1 mM EDTA, 1% NP-40, 2.5 mg/ml NaDOC, 1 mM Na3VO4 1 mM PMSF, and 2 μg/ml each of protease inhibitors). The light mitochondrial fraction was used in subsequent experiments. […]
# NMDAR = test: mEPSC whole cell recordings in cultured hippocampal neurons, NMDAR component; type: cell-based, rat
# Method: (§3) Fetal rat hippocampal neurons were prepared, cultured, and used for electrophysiological recordings 12-17 days after plating. Methods for whole cell recordings are described in Pelkey et al. (Neuron 34:127-138 2002).
# (§4) In contrast, in control experiments administering EPQ(pY)EEIPIA (SEQ ID NO:5) increased the NMDAR component of mEPSCs by 172±28% and application of Src40-58 decreased the NMDAR component to 56±4% (FIGS. 5D-F). […] Composite traces are shown in black, the NMDAR component in dark grey, and the AMPAR component in light grey. Scale bars are 50 ms/10 pA. […] NMDA component data were calculated as Q20′/Q2′, and AMPA component data were calculated as A20′/A2′. […] An * indicates a significant difference, Student's t-test, p<0.05. Taking our results together, it is concluded that Src-dependent regulation of the activity of NMDARs depends on expression of ND2 through its anchoring of Src to the NMDAR complex.
# ND2.3-GST = target: T2, ND2.3-GST (Homo sapiens, UniProt P03891); test: dot blot of biotinylated Src peptides on ND2.3-GST; type: binding; conditions: biotinylated peptide
# T2 construct: amino acids 1-188 (ND2.3-GST); made in house; host or cells: bacteria
# Method: Src, Fyn, and ND2 recombinant proteins were prepared. The cDNAs encoding the SH3 and SH2 domains of mouse n-Src and Fyn were PCR subcloned, ligated in frame into pGEX4T-1 (Amersham Pharmacia Biotech, Baie d'Urfé, Québec), and sequenced. These plasmids, as well as plasmids encoding the unique domains of Src and Fyn in pGEX2T'6, were transformed into BL21 bacteria, and GST fusion proteins were purified by glutathione affinity chromatography. To create the ND2.1, ND2.2, and ND2.3 GST fusion proteins, cDNAs encoding amino acids 239-321 (ND2.1-GST; SEQ ID NO:7), amino acids 189-238 (ND2.2-GST; SEQ ID NO:11), and amino acids 1-188 (ND2.3-GST; SEQ ID NO:13) of human ND2 were PCR subcloned and ligated into pGEX4T-1 (the nucleotide sequence encoding ND2 is SEQ ID NO:8 and the amino acid sequence is SEQ ID NO:9; the nucleotide sequences encoding ND2.1; ND2.2 and ND2.3 are SEQ ID NOS:6, 10 and 12, respectively). Using PCR-based single nucleotide mutagenesis, all cDNAs encoding ND2 fusion proteins were corrected for differences between mitochondrial and nuclear codons to prevent premature translation termination and protein truncation. […]
# Src40-58 and scrambled Src peptides were biotinylated by incubating with Sulfo-NHS-Biotin (Pierce Chemical Co., Rockford, Ill.) for 30 minutes at room temperature (SEQ ID NO:4, Src protein). […] Bound probe was then detected on film using an ECL kit.
# AMPA receptor = test: mEPSC whole cell recordings in cultured hippocampal neurons, AMPA receptor component; type: cell-based, rat; conditions: under the recording conditions used
# Method: as §3, §4
# [2] = target: T3, interaction between Src and ND2 (Rattus norvegicus, UniProt P11662); test: co-immunoprecipitation of ND2 by anti-Src from PSD proteins; type: binding; conditions: PSD proteins incubated with peptide
# T3 construct: from tissue; host or cells: rat brain post-synaptic density fraction
# T3 sequence (P11662 1-346): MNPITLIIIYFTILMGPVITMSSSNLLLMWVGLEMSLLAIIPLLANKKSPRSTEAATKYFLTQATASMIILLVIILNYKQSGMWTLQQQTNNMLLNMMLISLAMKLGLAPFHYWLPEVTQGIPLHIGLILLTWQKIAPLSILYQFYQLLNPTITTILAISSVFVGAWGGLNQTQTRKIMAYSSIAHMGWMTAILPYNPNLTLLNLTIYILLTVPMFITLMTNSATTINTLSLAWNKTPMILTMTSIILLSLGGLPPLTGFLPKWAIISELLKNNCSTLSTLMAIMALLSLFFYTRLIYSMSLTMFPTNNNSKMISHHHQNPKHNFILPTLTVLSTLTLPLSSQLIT
# Method: as §1, §2
# T2 sequence (P03891 1-188): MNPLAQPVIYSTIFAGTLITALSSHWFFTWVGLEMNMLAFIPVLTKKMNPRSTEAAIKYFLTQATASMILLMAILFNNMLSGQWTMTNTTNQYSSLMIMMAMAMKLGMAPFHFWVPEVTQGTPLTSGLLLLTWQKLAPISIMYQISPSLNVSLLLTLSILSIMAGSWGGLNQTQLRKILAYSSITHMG
substance,measurement,setting,value
Src40-58: peptide comprising amino acid residues 40-58 of SEQ ID NO:4 (Src) (PASADGHRGPSAAFAPAAA; listed as Homo sapiens),co-immunoprecipitation of ND2 with NMDARs,[1],not affected
same,"NMDAR component of mEPSCs, decreased to","NMDAR; control experiments, cultured hippocampal neurons",56±4%
same,NMDAR component of the mEPSCs,NMDAR; neurons treated with chloramphenicol for 48 hours,not affected
same,binding to ND2.3-GST,ND2.3-GST,Neither Src40-58 nor scrambled Src40-58 bound
same,AMPA receptor component of the mEPSCs,AMPA receptor,neither of these reagents affected
same,co-immunoprecipitation of ND2 by anti-Src,[2],prevented
same,immunoprecipitation of Src from PSDs,[2],did not affect
